In data set [1] the target is T1, TBPm3 (altered specificity TATA-binding protein mutant) (UniProt P13393 1-240, I194F;V203T;L205V).
T1 sequence: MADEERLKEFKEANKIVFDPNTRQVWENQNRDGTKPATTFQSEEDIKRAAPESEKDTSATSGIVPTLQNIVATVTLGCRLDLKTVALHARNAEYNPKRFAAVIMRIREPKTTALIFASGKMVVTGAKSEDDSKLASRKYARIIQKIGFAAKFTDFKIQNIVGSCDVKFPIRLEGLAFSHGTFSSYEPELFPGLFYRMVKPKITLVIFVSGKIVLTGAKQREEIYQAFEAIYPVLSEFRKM
In words: MPE-Fe.

The target in data set [2] is T1, TBPm3 (altered specificity TATA-binding …). The data set is described as follows: EMSA kinetics.
The target of data set [3] is T2, Brf1 (TFIIB-related factor, subunit of TFIIIB) (S. cerevisiae, UniProt P29056 1-596).
T2 sequence (looked up): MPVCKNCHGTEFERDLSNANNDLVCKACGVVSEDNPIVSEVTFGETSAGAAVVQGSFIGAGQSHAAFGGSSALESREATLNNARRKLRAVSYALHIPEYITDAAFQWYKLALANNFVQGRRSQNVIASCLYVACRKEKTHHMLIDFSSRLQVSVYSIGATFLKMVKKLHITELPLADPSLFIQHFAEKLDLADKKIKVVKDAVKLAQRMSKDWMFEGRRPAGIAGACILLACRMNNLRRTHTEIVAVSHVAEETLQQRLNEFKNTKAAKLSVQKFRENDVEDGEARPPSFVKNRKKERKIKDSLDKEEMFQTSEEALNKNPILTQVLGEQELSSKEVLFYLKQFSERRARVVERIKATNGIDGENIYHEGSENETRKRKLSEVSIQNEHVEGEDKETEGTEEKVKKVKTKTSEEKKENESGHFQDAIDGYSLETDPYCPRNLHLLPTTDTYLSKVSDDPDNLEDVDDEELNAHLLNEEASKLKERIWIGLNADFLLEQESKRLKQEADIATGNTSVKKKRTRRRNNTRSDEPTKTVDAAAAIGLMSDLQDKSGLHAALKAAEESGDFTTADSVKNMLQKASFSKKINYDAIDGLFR
In words: native gel or EMSA. In general terms: Mobility shift assays separate free from complexed probe on a gel.

The target of data set [4] is T1, TBPm3 (altered specificity TATA-binding …). In words: EMSA kinetics. This is another data set of the same source.

Read-outs that look alike come from different tables or passages of the source.

B1: 76 bp DNA with favored sequence TGTAAATTG (dsDNA)
DNA 1: CGCTGCAATCTCTTTTTCAATTGCTCCGGACTGTAAATTGGCGGTCCCTTACTCTTTCCTCAACAATTAACGGCCC
DNA 2: GGGCCGTTAATTGTTGAGGAAAGAGTAAGGGACCGCCAATTTACAGTCCGGAGCAATTGAAAAAGAGATTGCAGCG
Consider B1, for which the binding result in data set [1] is listed as “binds”.

B2: TGTA probe, 26 bp (dsDNA)
DNA 1: CGTGACTACTGTAAATAGATGATCCG
DNA 2: CGGATCATCTATTTACAGTAGTCACG
With B2, in data set [2], the Kd – broadly, the equilibrium constant for the complex coming apart – amounted to 600 pM.

B3: TBPm3 (altered specificity TATA-binding protein mutant) (natural protein, S. cerevisiae, UniProt P13393 1-240, looked up)
chain: T1 sequence
B3: the binding result in data set [3] was “binds”.

B4: TATA probe (U6 TATA box), 26 bp (dsDNA)
DNA 1: CGTGACTACTATAAATAGATGATCCG
DNA 2: CGGATCATCTATTTATAGTAGTCACG
For B4, binding in data set [4] was put at a Kd of 300 pM.

The values above are taken from PMC1636458 (Nucleic Acids Research, 2006).
